# Article doi:10.1101/2022.04.29.490116
# Like-named read-outs stand apart in the source and are kept apart here.
# T1: StbA (Escherichia coli plasmid R388, UniProt Q6I6C4 1-141)
# T1 sequence: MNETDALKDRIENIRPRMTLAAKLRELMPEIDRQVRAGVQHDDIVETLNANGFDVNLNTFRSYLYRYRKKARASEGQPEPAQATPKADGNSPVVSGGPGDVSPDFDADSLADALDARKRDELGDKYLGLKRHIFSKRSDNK
# T2: StbA1-75 (Escherichia coli plasmid R388, UniProt Q6I6C4 1-75)
# T2 sequence: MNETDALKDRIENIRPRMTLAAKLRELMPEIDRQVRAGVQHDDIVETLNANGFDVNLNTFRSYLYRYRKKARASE
# B1: stb5a (dsDNA)
# DNA 1: CCGTTTTAGCTCATTTTCTGCATCATTGTAGCACCATCATAGCATTATAGTTGCATCATTGCTGCACGATAACCCAATGC
# DNA 2: GCATTGGGTTATCGTGCAGCAATGATGCAACTATAATGCTATGATGGTGCTACAATGATGCAGAAAATGAGCTAAAACGG
# B2: stb0 (dsDNA)
# DNA 1: CCTTAAACGGCCTATTGTTTCCAAGCGGAGTGACAACAAATGAAAGTAGCTGTGCTTAAGTATTCAACAAAGCCGCCGTC
# DNA 2: GACGGCGGCTTTGTTGAATACTTAAGCACAGCTACTTTCATTTGTTGTCACTCCGCTTGGAAACAATAGGCCGTTTAAGG
# B3: stb3 (dsDNA)
# DNA 1: TAGCTCATTCTGTTCTTGCTTGCTGCATCATCACTGCATCATAGCTGCATCATCAATGCCGATCTAGCTCATTACTGTTC
# DNA 2: GAACAGTAATGAGCTAGATCGGCATTGATGATGCAGCTATGATGCAGTGATGATGCAGCAAGCAAGAACAGAATGAGCTA
# B4: stb2 (dsDNA)
# DNA 1: CCGTTCTAGCTCATTCTGTTCTTGCTTGCTGCATCATCACTGCATCATCCCAATGCCGATCTAGCTCATTACTGTTCTAT
# DNA 2: ATAGAACAGTAATGAGCTAGATCGGCATTGGGATGATGCAGTGATGATGCAGCAAGCAAGAACAGAATGAGCTAGAACGG
# B5: stb5b (dsDNA)
# DNA 1: TTGCCTGCATCATAGCTGTCCTATGACTGCATCACATTTGCATCATACATGCATTATTTC
# DNA 2: GAAATAATGCATGTATGATGCAAATGTGATGCAGTCATAGGACAGCTATGATGCAGGCAA
# B6: stb5 (dsDNA)
# DNA 1: TCTGTTCTTGCTTGCTGCATCATCACTGCATCATCACTGCATCATCACTGCATCATCACTGCATCATATGCCGATCTAGC
# DNA 2: GCTAGATCGGCATATGATGCAGTGATGATGCAGTGATGATGCAGTGATGATGCAGTGATGATGCAGCAAGCAAGAACAGA
# Tests used:
# [1] = biological target: StbA of plasmid R388, full length, C-terminally (His)6-tagged (enterobacterial plasmid R388); test: SEC
# StbA [2] = biological target: T1, StbA; test: EMSA
# StbA1-75 [3] = biological target: T2, StbA1-75; test: EMSA
# StbA [4] = biological target: T1, StbA; test: EMSA; remark: listed apart in the source
# StbA1-75 [5] = biological target: T2, StbA1-75; test: EMSA; remark: listed apart in the source
# StbA [6] = biological target: T1, StbA; test: EMSA; remark: listed apart in the source
# StbA1-75 [7] = biological target: T2, StbA1-75; test: EMSA; remark: listed apart in the source
# StbA [8] = biological target: T1, StbA; test: EMSA; remark: listed apart in the source
# StbA [9] = biological target: T1, StbA; test: EMSA; remark: listed apart in the source
# StbA [10] = biological target: T1, StbA; test: EMSA; remark: listed apart in the source
molecule,measurement,setting,value
"StbA of plasmid R388, full length, C-terminally (His)6-tagged (natural protein)",stoichiometry N,[1],2
B1,binding result,StbA [2],binds
same,binding result,StbA1-75 [3],binds
B2,binding result,StbA [4],no binding
B3,binding result,StbA1-75 [5],binds
same,binding result,StbA [6],binds
B4,binding result,StbA1-75 [7],binds
same,binding result,StbA [8],binds
B5,binding result,StbA [9],binds
B6,binding result,StbA [10],binds
